# Patent publication US20240287172A1 (SCIRHOM, published 2024)
# Where a chain is given by its changes, count along the chain named.
# T1: hiR2-FL-E557D-T7 (human, UniProt Q6PJF5 1-856)
# T1 sequence: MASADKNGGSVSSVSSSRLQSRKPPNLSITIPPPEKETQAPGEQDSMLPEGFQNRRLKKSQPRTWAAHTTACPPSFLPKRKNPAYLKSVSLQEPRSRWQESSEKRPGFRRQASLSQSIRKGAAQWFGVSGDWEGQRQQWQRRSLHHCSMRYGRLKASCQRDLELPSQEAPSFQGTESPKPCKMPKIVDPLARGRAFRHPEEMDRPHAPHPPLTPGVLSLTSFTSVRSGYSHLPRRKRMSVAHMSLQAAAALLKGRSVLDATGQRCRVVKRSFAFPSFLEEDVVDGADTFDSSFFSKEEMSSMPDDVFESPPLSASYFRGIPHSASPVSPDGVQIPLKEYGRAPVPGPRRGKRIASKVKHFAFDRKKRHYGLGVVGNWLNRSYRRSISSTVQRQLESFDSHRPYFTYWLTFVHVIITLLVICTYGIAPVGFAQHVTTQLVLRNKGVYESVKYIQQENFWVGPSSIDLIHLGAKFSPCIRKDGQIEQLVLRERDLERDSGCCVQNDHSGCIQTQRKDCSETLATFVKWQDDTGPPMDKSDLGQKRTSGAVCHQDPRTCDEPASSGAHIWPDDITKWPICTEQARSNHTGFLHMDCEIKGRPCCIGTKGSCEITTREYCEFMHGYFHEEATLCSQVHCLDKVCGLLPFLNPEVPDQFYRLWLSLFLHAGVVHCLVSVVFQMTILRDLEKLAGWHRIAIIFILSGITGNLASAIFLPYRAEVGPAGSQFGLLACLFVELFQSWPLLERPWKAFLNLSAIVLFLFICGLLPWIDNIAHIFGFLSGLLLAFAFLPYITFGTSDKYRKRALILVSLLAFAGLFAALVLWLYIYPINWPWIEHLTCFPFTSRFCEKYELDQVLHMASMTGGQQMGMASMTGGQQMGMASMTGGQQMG
# B1: antibody 3 (antibody, V domains shown)
# VH: QVTLKESGPGILQPSQTLSLTCSFSGFSLTTFAMGIGWVRQPSGKGLEWLAHIWWDGEKYNNPVLKSRLTISKDTSKNQVFLRIANVDTPDTATYYCARISSIYYIIDNWGQGTSVTVSS
# VL: DIVLTQSPATLSVTPGHSVSLSCRASQSISNNLHWYQKKSHESPRLLIKYVSQSISGIPSRFSGSGSGTDFTLSINSVETEDFGMYFCQQSYNWPLTFGAGTKLELK
# notes: mouse IgG, kappa light chain; also called clone #3; purified antibody 3
# B2: antibody 5 (antibody, V domains shown)
# VH: QVTLKESGPGILQPSQTLSLTCSFSGFSLSTFGMGVGWIRQPSGKGLEWLAHIWWDDEKYYNSALKSRLTISKATSKNQAFLKIANVDTADTATYYCARISNYGSNYWYFNVWGTGTTVTVSS
# VL: QVVLTQSPALMSASPGEKVTMTCSAGSSVSCMYWYQQKPGSSPRVLIYDTSNLASGVPARFTGSGSGTSYSLTISRMEAEDAASYYCQQWNSYPLTFGAGTKLELK
# notes: mouse IgG, kappa light chain; also called clone #5; purified antibody 5
# B3: antibody 42 (antibody, V domains shown)
# VH: B2 VH with F24L, M34R, S63P, A74D, A80V, K83R, S101Q, N111D
# VL: LIVLTQSPAIMSASPGEKVTMTCGATSRISYMFWYQQKPGSSPRVLIYDTSNLASGVPVRFSGSGSGTSYSLTISRVEAEDVATYYCQQWNSYPLTFGAGTKLELK
# notes: mouse IgG, kappa light chain; also called clone #42; purified antibody 42
# B4: antibody 43 (antibody, V domains shown)
# VH: B2 VH with T3A, P42S, H52N, E58D, S63P, A74D, T75A, S101G, N111D
# VL: B3 VL with L1Q, K18R, G24S, T26N, F33Y, V45L, V77M, V82A, Y86N, N91S
# notes: mouse IgG, kappa light chain; also called clone #43; purified antibody 43
# B5: antibody 44 (antibody, V domains shown)
# VH: B2 VH with G44E, E58D, S63P, A74D, A80I, A85T, D91E, A98S, S101G, N111D
# VL: QIVLTQSPAVMSASPGEKVTMTCTASSSVYYMYWYQQTPGSSPRLLIYDTSNLASGVPVRFSGSGSGTSYSLTISRMEAEDAATYYCQQWNTYPLTFGAGTKLELK
# notes: mouse IgG, kappa light chain; also called clone #44; purified antibody 44
# B6: antibody 22 (antibody, V domains shown)
# VH: B2 VH with A80V
# VL: B2 VL with C31Y, S84T
# notes: mouse IgG, kappa light chain; also called clone #22; purified antibody 22
# B7: antibody 48 (antibody, V domains shown)
# VH: QVQLQQSGTELVRPGTSVKVSCKASGYAFTNYLIEWVKQRPGQGLEWIGVINPGSGFTKYNEKFKGKATLTADKSSSTVYMHLSSLTSEDSAVYFCARGLYRAMDYWGQGTSVTVSS
# VL: DIQMTQSPASQSASLGESVTITCLASQTIATWLAWYQQKPGKSPQLLIYGATTLADGVPSRFSGGGSGTKFSFKISSLQAEDFVSYYCQQLYSTPYTFGGGTKLEIK
# notes: mouse IgG, kappa light chain; also called clone #48; purified antibody 48
# B8: antibody 50 (antibody, V domains shown)
# VH: B7 VH with T9A, T16A, T30S, V79A, H82Q
# VL: B7 VL with A30G, G50A, T52A, T53S, S85N, L91I
# notes: mouse IgG, kappa light chain; also called clone #50; purified antibody 50
# B9: antibody 34 (antibody, V domains shown)
# VH: QVTLKESGPGILQPSQTLSLTCSFSGFSLSTFSLGVGWIRQSSGKGLEWLAHIWWDDEKYYNPALKSRLTISKDTSKNQVFLKIANVDAADTATYYCARAYYSKSYYALDYWGQGTSVTVSS
# VL: DIQMTQSPSSLSASLGERVSLTCRASQEISGYLSWLQQKPDGTIKRLIYAASTLDSGVPKRFSGSRSGSDYSLAISSLESEDFADYYCLQYANFPFTFGSGTKLEIK
# notes: mouse IgG, kappa light chain; also called clone #34; purified antibody 34
# Target: T1, hiR2-FL-E557D-T7
# Assay: FACS, MEF-DKO cells, 3 µg/ml
# From the text: In brief, immortalized MEF-DKO-hiR2-FL-G498A-T7, MEF-DKO-hiR2-FL-Q502R-T7, MEF-DKO-hiR2-FL-I509V-T7, MEF-DKO-hiR2-FL-Q512S-T7, MEF-DKO-hiR2-FL-R513E-T7, MEF-DKO-hiR2-FL-K514E-T7, MEF-DKO-hiR2-FL-D515E-T7, MEF-DKO-hiR2-FL-E518S-T7, MEF-DKO-hiR2-FL-T522V-T7, MEF-DKO-hiR2-FL-F523W-T7, MEF-DKO-hiR2-FL-Q527P-T7, MEF-DKO-hiR2-FL-D528I-T7, MEF-DKO-hiR2-FL-D529H-T7, MEF-DKO-hiR2-FL-T530P-T7, MEF-DKO-hiR2-FL-G531S-T7, MEF-DKO-hiR2-FL-P532A-T7, MEF-DKO-hiR2-FL-M534-T7, MEF-DKO-hiR2-FL-D535-T7, MEF-DKO-hiR2-FL-K536-T7, MEF-DKO-hiR2-FL-S537E-T7, MEF-DKO-hiR2-FL-D538L-T7, MEF-DKO-hiR2-FL-L539A-T7, MEF-DKO-hiR2-FL-Q541H-T7, MEF-DKO-hiR2-FL-T544Q-T7, MEF-DKO-hiR2-FL-S545F-T7, MEF-DKO-hiR2-FL-A547S-T7, MEF-DKO-hiR2-FL-T555V-T7, MEF-DKO-hiR2-FL-E557D-T7, MEF-DKO-hiR2-FL-A560S-T7 and MEF-DKO-hiR2-FL-S562E-T7 cells were harvested with 10 mM EDTA in PBS, washed and resuspended in FACS buffer (PBS, 3% FBS, 0.05% sodium azide), and seeded in Nunc U-bottom 96-well plates (Thermo Fisher Scientific, USA) at approximately 3×10⁵ cells per well. To pellet cells and remove supernatants, the plates were centrifuged at 1,500 rpm and 4° C. for 3 minutes. For primary staining, cells were resuspended in 100 μl per well of either FACS buffer alone (controls) or the purified antibodies 3, 5, 16, 22, 34, 42, 43, 44, 48, and 50 of the invention at 3 μg/ml in FACS buffer and incubated on ice for 1 hour. Afterwards, plates were centrifuged at 1,500 rpm and 4° C. for 3 minutes and washed twice with 200 μl per well of FACS buffer. For secondary staining, cells were spun down and resuspended in 100 μl per well of PE-conjugated goat anti-mouse IgG F(ab′)2 detection fragment (Dianova, Germany) diluted 1:100 in FACS buffer. Protected from light, the cell suspensions were incubated on ice for 1 hour. Plates were then centrifuged at 1,500 rpm and 4° C. for 3 minutes and washed three times with 200 μl per well of FACS buffer. Finally, cells were resuspended in 150 μl per well of FACS buffer and analyzed using a BD Accuri™ C6 Plus flow cytometer (Becton Dickinson, Germany).
row,Binder,loss of binding vs wild type [%]
1,B1,≥ 60
2,B2,≥ 60
3,B3,≥ 30
4,B4,≥ 30
5,B5,≥ 30
6,B6,≥ 30
7,B7,≥ 30
8,B8,≥ 30
9,B9,≥ 60
